Laboratory results: PMC9896561

Target: T1, T4 DNA ligase (T4DL) (UniProt P00970 1-487)
T1 sequence: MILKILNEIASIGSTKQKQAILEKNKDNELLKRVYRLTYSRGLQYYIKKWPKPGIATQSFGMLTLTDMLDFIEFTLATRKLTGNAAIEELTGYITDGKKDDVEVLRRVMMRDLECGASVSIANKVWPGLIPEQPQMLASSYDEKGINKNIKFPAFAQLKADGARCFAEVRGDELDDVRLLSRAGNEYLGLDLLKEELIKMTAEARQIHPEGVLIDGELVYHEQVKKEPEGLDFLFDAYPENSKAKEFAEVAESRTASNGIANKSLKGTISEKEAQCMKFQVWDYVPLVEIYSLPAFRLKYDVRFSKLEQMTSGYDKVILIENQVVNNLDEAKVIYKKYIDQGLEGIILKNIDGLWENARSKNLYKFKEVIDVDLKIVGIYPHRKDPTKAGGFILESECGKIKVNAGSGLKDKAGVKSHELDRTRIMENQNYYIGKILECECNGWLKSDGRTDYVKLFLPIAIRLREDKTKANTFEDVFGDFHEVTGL
Test: fluorescence anisotropy

B1: DAS1M (structured_DNA)
DNA: ATCTCGACTAGTCAGTCTCCCCAGCTAAAAAAAAAAAAAGTTGGGGAAAAAAAAAATCCGAATGTCTCGGAT
modifications: 5' phosphate
Kd: 1270 ± 300 nM
